The results in this text go back to the supplement of paper PMC9732359.

± gives the uncertainty stated by the source.

The nature of this data set: protein stability index of a GFP-peptide fusion (yeast GPS) (PSI 1-4); higher = more stable; sorted into four equal gates, so the index is relative within each strain. The procedure, abridged: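 Sequencing reads from sorted gates were used to score each peptide. The library consisted of tiled 17-residue yeast protein peptides fused downstream of GFP on a Cherry-expressing plasmid, pooled and carried in yeast. Mid-log cultures in leucine-free medium were split into four equal gates by GFP/Cherry ratio, and each gate's plasmids were PCR-amplified and Illumina-sequenced. The protein stability index adds up, over all gates, the read frequency multiplied by the gate number.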

For the sequence SGSAGANPAGASQPEPT [YJL041W/NSP1], the protein stability index reads like this: (doa10∆) 2.9 ± 0.18; (pdr5∆) 3.2 ± 0.13; (san1∆) 2.93 ± 0.1; (ubr1∆) 3.15 ± 0.1.
Taken in the same sequence, the figures for WKRQISYFLKLLGNCYS [SRB8] were 1.63 ± 0.038, 1.82 ± 0.042, 1.69 ± 0.071 and 1.37 ± 0.037.
ETIIFDSELNRALFETK [RRI1]: the protein stability index is, setting by setting: (doa10∆) 3.03 ± 0.14; (pdr5∆) 2.66 ± 0.14; (san1∆) 3.2 ± 0.062; (ubr1∆) 3.35 ± 0.17.
For the sequence SLLDAEEERRKKRESGV [SNF2], the protein stability index runs as follows: (doa10∆) 3.47 ± 0.08; (pdr5∆) 3.32 ± 0.1; (ubr1∆) 3.47 ± 0.047.
On to EKFSEKMLKIWTMAFRT [ECM29], for which the protein stability index is, setting by setting: (doa10∆) 2 ± 0.11; (pdr5∆) 2.09 ± 0.1; (san1∆) 1.37 ± 0.2; (ubr1∆) 1.48 ± 0.09.
Taken in the same sequence, the figures for NVLKAPFIKSESKPFSS [SIR4] were 2.65 ± 0.068, 2.81 ± 0.088, 2.6 ± 0.064 and 3.03 ± 0.059.
Taken in the same sequence, the figures for NKSRSSGHFSTDSRTGQ [CDC53] were 3.03 ± 0.054, 3.05 ± 0.052, 3.12 ± 0.041 and 3.14 ± 0.039.
The like results for KAALERLKVFEGIPPPY [RPL16A] were, in that order, 2.57 ± 0.096, 2.84 ± 0.12, 3.09 ± 0.092 and 2.69 ± 0.085.
Sequence MAKSKNHTAHNQTRKAH [RPL29] registered a protein stability index (doa10∆) of 1.7 ± 0.058, a protein stability index (pdr5∆) of 2.41 ± 0.08, a protein stability index (san1∆) of 1.96 ± 0.095 and a protein stability index (ubr1∆) of 2.32 ± 0.067.
The like results for DEVNDRSDISDSEGGLF [PCI8] were, in that order, 3.33 ± 0.28, 3.08 ± 0.16, 3.46 ± 0.072 and 3.06 ± 0.12.
Regarding TTSRFSKQVTDYYQSIY [FAS2], the protein stability index reads like this: (doa10∆) 2.77 ± 0.056; (pdr5∆) 2.87 ± 0.071; (san1∆) 2.47 ± 0.089; (ubr1∆) 2.59 ± 0.05.
Taken in the same sequence, the figures for LAKKWFLQHPDEEYPVK [PRP8] were 3.23 ± 0.14, 3.15 ± 0.15, 3.26 ± 0.094 and 2.89 ± 0.16.
ELRRPGVDNLRRMGILK [RPO31]: the protein stability index came out at 3.17 ± 0.079 (doa10∆), 2.98 ± 0.067 (pdr5∆), 2.85 ± 0.06 (san1∆) and 3.08 ± 0.039 (ubr1∆).
Sequence SEISSLKGKINNEMKSL [SMC1] came in with a protein stability index (doa10∆) of 3.09 ± 0.28, a protein stability index (san1∆) of 2.65 ± 0.27 and a protein stability index (ubr1∆) of 3.18 ± 0.18.
As for NTEGSVVYEDSLELEKV [SNF2], the protein stability index was found to be 2.98 ± 0.063 (doa10∆), 2.94 ± 0.062 (pdr5∆), 2.48 ± 0.095 (san1∆) and 3.01 ± 0.095 (ubr1∆).
On to DKGLLPYAIMETANEIL [RPO31], for which the protein stability index came out at 2.95 ± 0.14 (doa10∆), 2.71 ± 0.19 (pdr5∆) and 2.25 ± 0.13 (ubr1∆).
In the case of QAGVTKASVTIVFDNTD [SMC2], the protein stability index (doa10∆) worked out at 2.23 ± 0.071, the protein stability index (pdr5∆) amounted to 2.76 ± 0.058, the protein stability index (san1∆) came to 2.73 ± 0.053 and the protein stability index (ubr1∆) amounted to 3.09 ± 0.047.
Take TKSHNTVQSWLCDLFVN [NUT1]: the protein stability index is 1.55 ± 0.036 (doa10∆), 1.46 ± 0.044 (pdr5∆), 1.4 ± 0.09 (san1∆) and 1.54 ± 0.037 (ubr1∆).
Taken in the same sequence, the figures for THSYNFMRQNLEWNMAN [RPC82] were 2.45 ± 0.064, 1.75 ± 0.057, 1.74 ± 0.07 and 2.24 ± 0.048.
The sequence NLGSNVRNSFPLDEIPV [REC8] showed a protein stability index (doa10∆) of 2.95 ± 0.074, a protein stability index (pdr5∆) of 2.98 ± 0.13, a protein stability index (san1∆) of 2.88 ± 0.087 and a protein stability index (ubr1∆) of 3.06 ± 0.058.
The like results for SRLKALNLQFKAKVDDL [YLR335W/NUP2] were, in that order, 3.12 ± 0.075, 3.2 ± 0.091, 3.05 ± 0.1 and 3.11 ± 0.069.
SAPKISSEIDRENVKSK [SIR4] registered a protein stability index (ubr1∆) of 3.35 ± 0.15.
For the sequence LLATKQHDSSANEDEEE [CSN12], the protein stability index was determined as 2.85 ± 0.12 (doa10∆), 3.05 ± 0.089 (pdr5∆), 2.72 ± 0.086 (san1∆) and 2.87 ± 0.1 (ubr1∆).
The like results for LVSRGGCGNTQPTIRKD [RPO21] were, in that order, 2.96 ± 0.07, 2.74 ± 0.11, 2.83 ± 0.043 and 2.9 ± 0.043.
With EQQKEELTDKLSALNSE [SMC1], the protein stability index worked out at 3.19 ± 0.11 (pdr5∆), 2.73 ± 0.15 (san1∆) and 3.14 ± 0.12 (ubr1∆).
HRINMDKYHPGYFGKVG [RPL28]: the protein stability index runs as follows: (doa10∆) 3.4 ± 0.074; (pdr5∆) 3.41 ± 0.059; (san1∆) 3.24 ± 0.061; (ubr1∆) 3.24 ± 0.068.
